Publication PMC4619679

Target: Dnmt1 (N-His) (UniProt P13864)
Assay: MST
Conditions: EMSA: 20 mM Tris pH 7.6, 30 mM KCl, 5 mM EDTA, 1 mM DTT, 5 uM SAM, 20% glycerol, 26 C, MST: 10 mM Tris/Cl, 150 mM KCl, 0.75 mM MgCl2, 0.25 mM EGTA

UniProt P13864, sequence (P13864 whole entry): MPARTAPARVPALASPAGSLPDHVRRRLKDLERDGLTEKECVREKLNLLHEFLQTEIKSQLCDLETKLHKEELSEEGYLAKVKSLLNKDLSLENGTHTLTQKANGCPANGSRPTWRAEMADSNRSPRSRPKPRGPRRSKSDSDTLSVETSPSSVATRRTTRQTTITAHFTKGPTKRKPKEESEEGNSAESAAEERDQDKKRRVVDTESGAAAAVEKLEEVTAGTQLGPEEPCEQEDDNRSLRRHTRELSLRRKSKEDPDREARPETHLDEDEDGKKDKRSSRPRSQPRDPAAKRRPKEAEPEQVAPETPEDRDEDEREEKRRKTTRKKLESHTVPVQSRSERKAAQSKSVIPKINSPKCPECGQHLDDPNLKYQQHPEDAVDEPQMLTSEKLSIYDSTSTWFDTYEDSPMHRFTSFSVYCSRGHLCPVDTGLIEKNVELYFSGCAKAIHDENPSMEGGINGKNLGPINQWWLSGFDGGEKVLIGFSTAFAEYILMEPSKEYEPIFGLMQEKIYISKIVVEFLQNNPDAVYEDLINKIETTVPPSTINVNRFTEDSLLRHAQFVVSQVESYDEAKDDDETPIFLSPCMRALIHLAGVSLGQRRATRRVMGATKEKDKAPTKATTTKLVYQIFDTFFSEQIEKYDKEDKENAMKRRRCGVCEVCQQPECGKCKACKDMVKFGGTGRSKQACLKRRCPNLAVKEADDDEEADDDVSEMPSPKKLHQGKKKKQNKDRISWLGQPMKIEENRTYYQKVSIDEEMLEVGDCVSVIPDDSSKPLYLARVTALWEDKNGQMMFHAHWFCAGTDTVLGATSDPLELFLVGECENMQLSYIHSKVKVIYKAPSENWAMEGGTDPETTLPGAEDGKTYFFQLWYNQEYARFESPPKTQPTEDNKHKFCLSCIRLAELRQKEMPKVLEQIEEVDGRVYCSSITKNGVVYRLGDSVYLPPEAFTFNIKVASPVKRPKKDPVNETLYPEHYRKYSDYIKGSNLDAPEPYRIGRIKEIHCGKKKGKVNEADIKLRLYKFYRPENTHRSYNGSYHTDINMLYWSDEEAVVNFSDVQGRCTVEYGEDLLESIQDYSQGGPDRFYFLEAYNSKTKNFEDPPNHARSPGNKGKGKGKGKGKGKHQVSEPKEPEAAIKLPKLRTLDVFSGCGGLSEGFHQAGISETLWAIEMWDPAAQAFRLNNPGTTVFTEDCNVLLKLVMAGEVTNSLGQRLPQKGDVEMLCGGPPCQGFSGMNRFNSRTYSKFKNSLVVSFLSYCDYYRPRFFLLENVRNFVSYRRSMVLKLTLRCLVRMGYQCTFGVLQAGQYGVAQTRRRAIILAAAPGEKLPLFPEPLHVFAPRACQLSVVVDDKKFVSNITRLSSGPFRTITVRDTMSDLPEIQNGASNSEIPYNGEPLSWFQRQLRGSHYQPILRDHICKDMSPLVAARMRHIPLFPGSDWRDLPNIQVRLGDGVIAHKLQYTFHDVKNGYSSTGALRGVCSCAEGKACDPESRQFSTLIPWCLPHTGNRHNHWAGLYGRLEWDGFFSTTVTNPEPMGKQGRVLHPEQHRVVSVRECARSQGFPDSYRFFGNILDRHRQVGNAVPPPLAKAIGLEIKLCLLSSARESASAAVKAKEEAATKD

Question: Which binding signal (fold higher affinity with SAM) (160 uM SAM, 5-methyl-C at Z positions of the lower strand (C5, C12, C18, C20, C29, C33, C40, C42, C49; strand printed only up to TTAGAZG, so the CG in the last 8 nt is unknown)) does the source give for “TGCGGAATCGTCTAACGCGTGGAATCGTCCGATTGAGGTCGCGATCTCGAATCACGGTGC (double strand) [AIR60 hemi-methylated 60 bp DNA]” here?
Answer: 2

Question: For “TGCGGAATCGTCTAACGCGTGGAATCGTCCGATTGAGGTCGCGATCTCGAATCACGGTGC (double strand) [AIR60 non-methylated 60 bp DNA]”, which K half is on record?
Answer: 1500 nM
